The source of these data is article PMC3706316, “Transcription Factor Ets1 Cooperates with Estrogen Receptor α to Stimulate Estradiol-Dependent Growth in Breast Cancer Cells and Tumors” (PLoS ONE, 2013).

The test addresses T1, GST-Ets1 fusion protein (UniProt P14921 1-441).
T1 construct: Transcription factor Ets1 fused to GST; the only Ets1 cDNA it names is human ETS1 (pSG5-hEts1); also called purified GST-Ets1 fusion; source: recombinant fusion protein, prepared using glutathione-sepharose resin as previously described [40]; held on the resin
T1 sequence (looked up): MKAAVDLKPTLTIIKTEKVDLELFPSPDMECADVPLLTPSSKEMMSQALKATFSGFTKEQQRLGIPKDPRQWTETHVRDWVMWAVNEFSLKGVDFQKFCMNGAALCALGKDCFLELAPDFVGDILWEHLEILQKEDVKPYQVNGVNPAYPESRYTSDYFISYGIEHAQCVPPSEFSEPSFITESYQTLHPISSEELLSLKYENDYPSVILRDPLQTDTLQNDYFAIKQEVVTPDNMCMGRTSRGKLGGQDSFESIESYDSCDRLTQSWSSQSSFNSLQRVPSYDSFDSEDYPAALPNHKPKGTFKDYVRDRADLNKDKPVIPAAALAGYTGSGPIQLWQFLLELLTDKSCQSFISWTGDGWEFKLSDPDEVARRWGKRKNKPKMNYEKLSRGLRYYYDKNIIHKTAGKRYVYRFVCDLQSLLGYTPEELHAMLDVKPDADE
Description: pull-down; GST or GST-Ets1 (4 µg/20 µL glutathione-sepharose resin) in 0.5 mL binding buffer (40 mM HEPES pH 7.5, 100 mM NaCl, 5 mM MgCl2, 0.1 mM EDTA, 0.05% Nonidet P-40, 1 mM DTT); GreenLys-labeled ERα (5 µL) 30 min at 4°C, labeled NCOA (5 µL) a further 2 h, alone or in combination; washed 3 times with 0.1% Triton X-100; SDS-PAGE, fluorescence imaging, percent of input bound. As to conditions: one partner purified.

B1: nuclear receptor coactivator NCOA3 (AIB/SRC3), GreenLys-labeled (natural protein)
chain: not shown
modifications: Fluorotect GreenLys-labeled (fluorescent lysines built in during translation)
notes: plasmid PCR3.1 SRC3/NCOA3 from O'Malley and Smith; source: in vitro translated (TNT coupled transcription-translation reticulocyte lysate, T7 polymerase) from PCR3.1 SRC3/NCOA3
Consider B1, for which the “percent of labeled input bound” value came to 26%.

B2: nuclear receptor coactivator NCOA1 (SRC1), GreenLys-labeled (natural protein)
chain: not shown
modifications: Fluorotect GreenLys-labeled (fluorescent lysines built in during translation)
notes: plasmid PCR3.1 SRC1/NCOA1 from O'Malley and Smith; source: in vitro translated (TNT coupled transcription-translation reticulocyte lysate, T7 polymerase) from PCR3.1 SRC1/NCOA1
Regarding B2, the “percent of labeled input bound” value came out at 27%.

B3: nuclear receptor coactivator NCOA2 (SRC2), GreenLys-labeled (natural protein)
chain: not shown
modifications: Fluorotect GreenLys-labeled (fluorescent lysines built in during translation)
notes: plasmid PCR3.1 SRC2/NCOA2 from O'Malley and Smith; source: in vitro translated (TNT coupled transcription-translation reticulocyte lysate, T7 polymerase) from PCR3.1 SRC2/NCOA2
For the molecule B3, the “percent of labeled input bound” value is 9%.

B4: estrogen receptor α (ERα), GreenLys-labeled (receptor, human, UniProt P03372 1-595, looked up)
chain: MTMTLHTKASGMALLHQIQGNELEPLNRPQLKIPLERPLGEVYLDSSKPAVYNYPEGAAYEFNAAAAANAQVYGQTGLPYGPGSEAAAFGSNGLGGFPPLNSVSPSPLMLLHPPPQLSPFLQPHGQQVPYYLENEPSGYTVREAGPPAFYRPNSDNRRQGGRERLASTNDKGSMAMESAKETRYCAVCNDYASGYHYGVWSCEGCKAFFKRSIQGHNDYMCPATNQCTIDKNRRKSCQACRLRKCYEVGMMKGGIRKDRRGGRMLKHKRQRDDGEGRGEVGSAGDMRAANLWPSPLMIKRSKKNSLALSLTADQMVSALLDAEPPILYSEYDPTRPFSEASMMGLLTNLADRELVHMINWAKRVPGFVDLTLHDQVHLLECAWLEILMIGLVWRSMEHPGKLLFAPNLLLDRNQGKCVEGMVEIFDMLLATSSRFRMMNLQGEEFVCLKSIILLNSGVYTFLSSTLKSLEEKDHIHRVLDKITDTLIHLMAKAGLTLQQQHQRLAQLLLILSHIRHMSNKGMEHLYSMKCKNVVPLYDLLLEMLDAHRLHAPTSRGGASVEETDQSHLATAGSTSSHSLQKYYITGEAEGFPATV
modifications: Fluorotect GreenLys-labeled (fluorescent lysines built in during translation)
notes: also called hERα; fluorescently labeled ERα; source: in vitro translated (TNT coupled transcription-translation reticulocyte lysate, T7 polymerase) from pcDNA3.1 ERα
For the molecule B4, the “percent of labeled input bound” value amounted to 10%.
